From patent US20240409617A1 (published 2024)
Changes are numbered by the printed parent chain. Like-named read-outs stand apart in the source and are kept apart here.

B1: Ab 30 (Fc fusion)
VH: QVQLVQSGGGVVQPGKSLRLSCTASGFTFSDFPIHWVRQAPGKGLEWVGVISYDGNIKYYGDSVKGRFTISRDNAKNSLYLQMNSLRVEDTAVYYCARGGSSFDIWGQGTTVTVSS
VL: SYELTQPPSVSEAPRQRVTISCSGSTSNIGNNAVSWYQHLPGKAPKLLIYYNERLPSGVSDRFSGSKSGTSASLAISGLRSEDEADYYCAAWDDSLSGHVVFGGGTKLTVL
B2: Ab 27 (Fc fusion)
VH: QVQLVQSGTEVKKPGASVKVSCKASGYSFTGSHLHWVRQAPGQGLEWMGWINPDSGVINYAQKFQGRVTLTRDTSISTAYMELSGLRSDDTAVYYCARDKAIGYVWALDYWGQGTLVTVSS
VL: QSALTQPPSVSGSPGQSVTISCTGTSSDVGTYNRVSWYQQPPGKAPKLMIYEVSNRPSGVSNRFSGSKSGNTASLTISGLQAEDEADYYCSSYTRTFTYVFGTGTKVTVL
B3: Ab 15 (Fc fusion)
VH: QVQLVQSGGGLVKPGRSLRLSCTASGFTFGDYAMSWFRQAPGKGLEWVGFIRSKAYGGTTGYAASVKGRFTISRDDSKSIAYLQMNSLKTEDTAVYYCTTADDDMDVWGKGTTVTVSS
VL: NFMLTQPHSVSESPGKTVTISCTRSSGTIASNYVQWYQQRPGSAPTTVIYEDNQRPSGVPDRFSGSIDRSSNSASLTISGLTPDDEADYYCQSYDTSNHYVFGTGTKVTVL
B4: Ab 23 (Fc fusion)
VH: EVQLVQSGAEVKKPGSSVKVSCRSSGGTFSTYGITWVRQAPGQGLEWMGRIIPSLGIPNYAQKFQGRVTITADTSVSTAWMELSSLESDDTAIYYCARENIDLATNDFWGQGTLVTVSS
VL: QSALTQPPSASGSPGQSVTISCTGTSRDIGAYGYVSWYQQVPGKAPKLIIYEVRNRPSGVSSRFSGSKSGNTASLTISGLQAEDEADYYCSSYTSSSTLDVVFGGGTKLTVL
B5: Ab 5 (Fc fusion)
VH: QVQLVQSGGGVVQPGRSLRLSCAASGFTFTTYGMHWVRQAPGKGLEWVAVISYDGSIKNYADFVEGRFTISRDNSKNTLYLQMNSLRPEDTGVYYCARVGDSSSYYGIDAWGQGTLVTVSS
VL: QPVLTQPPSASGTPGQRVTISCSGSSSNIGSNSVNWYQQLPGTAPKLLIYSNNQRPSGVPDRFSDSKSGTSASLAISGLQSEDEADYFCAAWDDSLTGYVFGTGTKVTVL
B6: Ab 25 (Fc fusion)
VH: QVQLVQSGGGLVQPGGSLRLSCAASGFTFSSYWMSWVRQAPGKGLEWVANIKQDGSEKYYVDSVKGRFTISRDNAKNSLYLQMNSLRAEDTAVYYCARGFYYYGAFDIWGQGTTVTVSS
VL: NFMLTQPHSVSESPGKTVTISCTGSSGSIASNYVQWYQQRPGSAPTTVIYEDNQRPSGVPDRFSGSIGSSSNSASLTISGLKTEDEADYYCQSYDSSNHWVFGGGTKLTVL
B7: Ab set2-7 (Fc fusion)
chain 1: QVTLKESGPTRVKPTQTLTLTCTFSGFSLSTTGVGVGWIRQPPGKALEWLALIYWNDDKRYSPSLKSRLTITKDTSKNQVVLTMTNMDPVDTATYYCARISGSGYFYPFDIWGQGTTVTVSS
chain 2: B6 VL with G24R, A44S, G68D, T83A, N98S, H99L
B8: Ab 2-7 (Fc fusion)
chain 1: B7 chain 1
chain 2: B6 VL with G24R, A44S, G68D, T83A, N98S, H99L

What was measured:
Assay in all cases: BLI
S1 [1] = molecular target: S1
S1-biotin(ACRO) = molecular target: S1-biotin(ACRO)
S1 [2] = molecular target: S1; remark: listed apart in the source
S1 [3] = molecular target: S1; remark: listed apart in the source
S1 [4] = molecular target: S1; remark: listed apart in the source

Binder | Kd (S1 [1]) [nM] | Kd (S1-biotin(ACRO)) [nM] | Kd (S1 [2]) [nM] | Kd (S1 [3]) [nM] | Kd (S1 [4]) [nM]
B1 | 0.314 |  |  |  | 
B2 | < 0.001 | < 0.001 |  |  | 
B3 | 0.033 | 0.033 |  |  | 
B4 | 0.338 | 0.338 |  |  | 
B5 | < 0.001 |  |  |  | 
B6 | 10.1 | 10.1 |  |  | 
B7 |  |  | < 0.001 | < 0.001 | 
B8 | < 0.001 |  |  |  | < 0.001
